Data as given in patent US20130330346A1 (Novartis, published 2013).

T1: Human CXCR2 (human, UniProt P25025 1-360)
T1 sequence: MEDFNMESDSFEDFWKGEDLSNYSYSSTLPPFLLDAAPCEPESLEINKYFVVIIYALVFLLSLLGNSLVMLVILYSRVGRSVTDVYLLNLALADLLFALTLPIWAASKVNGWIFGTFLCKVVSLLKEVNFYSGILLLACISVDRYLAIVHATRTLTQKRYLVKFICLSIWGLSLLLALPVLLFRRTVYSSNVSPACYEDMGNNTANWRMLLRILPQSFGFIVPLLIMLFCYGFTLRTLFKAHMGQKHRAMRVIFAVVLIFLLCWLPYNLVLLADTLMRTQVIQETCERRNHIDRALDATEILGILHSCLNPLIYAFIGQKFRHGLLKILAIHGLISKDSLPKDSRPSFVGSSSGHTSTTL

T2: Cynomolgus CXCR2 (cynomolgus, UniProt Q28519 3-353 (rhesus entry))
T2 chain: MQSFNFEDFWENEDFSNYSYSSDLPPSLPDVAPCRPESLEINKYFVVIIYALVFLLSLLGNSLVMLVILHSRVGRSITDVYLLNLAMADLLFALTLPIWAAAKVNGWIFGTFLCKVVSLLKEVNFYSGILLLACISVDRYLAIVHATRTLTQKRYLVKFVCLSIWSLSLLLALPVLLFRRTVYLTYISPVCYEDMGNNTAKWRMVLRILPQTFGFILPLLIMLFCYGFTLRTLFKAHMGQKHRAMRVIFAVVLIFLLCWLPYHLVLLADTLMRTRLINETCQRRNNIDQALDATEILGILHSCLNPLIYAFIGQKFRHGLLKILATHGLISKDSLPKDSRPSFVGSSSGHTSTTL


Key:
Human CXCR2 [1] = target: T1, Human CXCR2; experiment: cell-based or functional assay
Cynomolgus CXCR2 [2] = target: T2, Cynomolgus CXCR2; experiment: cell-based or functional assay
Human CXCR2 [3] = target: T1, Human CXCR2; experiment: FACS competition vs 3 nM FMAT-Blue Gro-α
Description: (§1) Multivalent anti-CXCR2Nanobodies were titrated against 3 nM FMAT-Blue-labeled Gro-α in the FACS ligand competition assay on human and cynomolgus CXCR2 (Table 14). On human CXCR2, blocking potencies range between double digit nM and sub-nM whereas on cynomolgus CXCR2, they range between single and double digit nM.

Cynomolgus CXCR2 [4] = target: T2, Cynomolgus CXCR2; experiment: FACS competition vs 3 nM FMAT-Blue Gro-α
Description: as §1

| Binder | FLIPR % inhibition of max (Human CXCR2 [1]) [%] | FLIPR IC50 (GRO-α induced calcium release) (Human CXCR2 [1]) [nM] | FLIPR % inhibition of max (Cynomolgus CXCR2 [2]) [%] | FLIPR IC50 (GRO-α induced calcium release) (Cynomolgus CXCR2 [2]) [nM] | % inhibition of max (Human CXCR2 [3]) [%] | IC50 (Human CXCR2 [3]) [nM] | % inhibition of max (Cynomolgus CXCR2 [4]) [%] | IC50 (Cynomolgus CXCR2 [4]) [nM] |
| --- | --- | --- | --- | --- | --- | --- | --- | --- |
| CXCR20027 (bispecific antibody, Two different VHH joined by a GlySer linker; also called 163E3-35GS-163D2; not shown: C-terminal c-myc tag and His6 tag coded by pAX100) EVQLVESGGGLVQPGGSLRLSCVASGRIFSSNAMGWFRQAPGKEREFVAAITWRSGGSAYYADSAKGRFTISRDNAKNTVYLQMNSLKPEDTAVYYCAAGGSSWLSFPPDYWGQGTQVTVSSGGGGSGGGGSGGGGSGGGGSGGGGSGGGGSGGGGSEVQLVESGGGLVQAGGSLRLSCAASGRTFSDYAMGWFRQAPGKEREFVAAITWNGGRVFYTASVKGRFTISRDNAKNTMYLQMNSLKPEDTAVYYCAADKDRRTDYLGHPVAYWGQGTQVTVSS | 100 | 17.8 | 100 | 12.7 | 100 | 4.9 | 97 | 6.42 |
| CXCR20018 (other, Two different VHH joined by a GlySer linker; also called 137B7-35GS-97A9; not shown: C-terminal c-myc tag and His6 tag coded by pAX100) EVQLVESGGGLVQPGGSVRLSCVASGIIFRLSALGWTRQGPGKAREWVAGINSDGTTNYADPVKGRFTISRDNAKNTIYLHMDMLKPEDTAVYYCASGKYRGQGTQVTVSSGGGGSGGGGSGGGGSGGGGSGGGGSGGGGSGGGGSEVQLVESGGGLVQPGGSLRLSCVASGSIVRINTMGWYRQTPGKQRELVADITSGGNINYIDAVKGRFTISRDNTKNTVYLQMNSLKPEDTAVYYCNAEIVVLVGVWTQRARTGNYWGQGTQVTVSS |  |  |  |  | 98 | 1.9 | 47 | 50.8 |
| CXCR20011 (VHH, Bivalent: two VHH joined by a GlySer linker; also called 97A9-35GS-97A9; not shown: C-terminal c-myc tag and His6 tag coded by pAX100) EVQLVESGGGLVQPGGSLRLSCVASGSIVRINTMGWYRQTPGKQRELVADITSGGNINYIDAVKGRFTISRDNTKNTVYLQMNSLKPEDTAVYYCNAEIVVLVGVWTQRARTGNYWGQGTQVTVSSGGGGSGGGGSGGGGSGGGGSGGGGSGGGGSGGGGSEVQLVESGGGLVQPGGSLRLSCVASGSIVRINTMGWYRQTPGKQRELVADITSGGNINYIDAVKGRFTISRDNTKNTVYLQMNSLKPEDTAVYYCNAEIVVLVGVWTQRARTGNYWGQGTQVTVSS | 100 | 137 |  |  | 99 | 35.2 | 60 | 97.4 |
| CXCR20029 (other, Biparatopic: two VHH joined by a GlySer linker; also called 163E3-35GS-54B12; not shown: C-terminal c-myc tag and His6 tag coded by pAX100) EVQLVESGGGLVQPGGSLRLSCVASGRIFSSNAMGWFRQAPGKEREFVAAITWRSGGSAYYADSAKGRFTISRDNAKNTVYLQMNSLKPEDTAVYYCAAGGSSWLSFPPDYWGQGTQVTVSSGGGGSGGGGSGGGGSGGGGSGGGGSGGGGSGGGGSEVQLVESGGGLVQAGGSLTLSCAVSGSTFRINTMGWYRRAPGKQRELVAARDRGGYINYVDSVKGRFTVSRDNAKPTMYLQMNSLKPEDTAVYYCHAGTQDRTGRNFDRWGQGTQVTVSS | 100 | 17.1 | 100 | 10.1 | 98.5 | 1.13 | 98.5 | 2.09 |

Binders with a lower IC50 (Human CXCR2 [3]), results first:

| FLIPR % inhibition of max (Human CXCR2 [1]) [%] | FLIPR IC50 (GRO-α induced calcium release) (Human CXCR2 [1]) [nM] | FLIPR % inhibition of max (Cynomolgus CXCR2 [2]) [%] | FLIPR IC50 (GRO-α induced calcium release) (Cynomolgus CXCR2 [2]) [nM] | % inhibition of max (Human CXCR2 [3]) [%] | IC50 (Human CXCR2 [3]) [nM] | % inhibition of max (Cynomolgus CXCR2 [4]) [%] | IC50 (Cynomolgus CXCR2 [4]) [nM] | Binder |
| --- | --- | --- | --- | --- | --- | --- | --- | --- |
| 100 | 2.93 | 100 | 29.2 | 90 | 0.9 | 98.5 | 4.2 | CXCR20013 (bispecific antibody, Biparatopic: two VHH joined by a GlySer linker; also called 2B2-35GS-97A9; not shown: C-terminal c-myc tag and His6 tag coded by pAX100) EVQLVESGGELVQPGGSLRLSCAASGSILTINAMGWYRQAPGKQRELVVRRTRGGSTTYQDSVKGRFTISADIAKKTMYLQMNSLKPEDTAVYYCMLDDRGGVYWGQGTQVTVSSGGGGSGGGGSGGGGSGGGGSGGGGSGGGGSGGGGSEVQLVESGGGLVQPGGSLRLSCVASGSIVRINTMGWYRQTPGKQRELVADITSGGNINYIDAVKGRFTISRDNTKNTVYLQMNSLKPEDTAVYYCNAEIVVLVGVWTQRARTGNYWGQGTQVTVSS |
| 100 | 2.36 | 100 | 1100 | 100 | 0.8 | 88 | 5.7 | CXCR20016 (other, Two different VHH joined by a GlySer linker; also called 137B7-35GS-2B2; not shown: C-terminal c-myc tag and His6 tag coded by pAX100) EVQLVESGGGLVQPGGSVRLSCVASGIIFRLSALGWTRQGPGKAREWVAGINSDGTTNYADPVKGRFTISRDNAKNTIYLHMDMLKPEDTAVYYCASGKYRGQGTQVTVSSGGGGSGGGGSGGGGSGGGGSGGGGSGGGGSGGGGSEVQLVESGGELVQPGGSLRLSCAASGSILTINAMGWYRQAPGKQRELVVRRTRGGSTTYQDSVKGRFTISADIAKKTMYLQMNSLKPEDTAVYYCMLDDRGGVYWGQGTQVTVSS |
| 100 | 7.86 | 100 | 4.27 | 98 | 0.7 | 98 | 2.27 | CXCR20036 (other, Biparatopic: two VHH joined by a GlySer linker; also called 54B12-35GS-163D2; 54B12-163D2; not shown: C-terminal c-myc tag and His6 tag coded by pAX100) EVQLVESGGGLVQAGGSLTLSCAVSGSTFRINTMGWYRRAPGKQRELVAARDRGGYINYVDSVKGRFTVSRDNAKPTMYLQMNSLKPEDTAVYYCHAGTQDRTGRNFDRWGQGTQVTVSSGGGGSGGGGSGGGGSGGGGSGGGGSGGGGSGGGGSEVQLVESGGGLVQAGGSLRLSCAASGRTFSDYAMGWFRQAPGKEREFVAAITWNGGRVFYTASVKGRFTISRDNAKNTMYLQMNSLKPEDTAVYYCAADKDRRTDYLGHPVAYWGQGTQVTVSS |
| 100 | 2.78 | 100 | 2870 | 99 | 0.7 | 81.5 | 99 | CXCR20015 (other, Two different VHH joined by a GlySer linker; also called 2B2-35GS-137B7; not shown: C-terminal c-myc tag and His6 tag coded by pAX100) EVQLVESGGELVQPGGSLRLSCAASGSILTINAMGWYRQAPGKQRELVVRRTRGGSTTYQDSVKGRFTISADIAKKTMYLQMNSLKPEDTAVYYCMLDDRGGVYWGQGTQVTVSSGGGGSGGGGSGGGGSGGGGSGGGGSGGGGSGGGGSEVQLVESGGGLVQPGGSVRLSCVASGIIFRLSALGWTRQGPGKAREWVAGINSDGTTNYADPVKGRFTISRDNAKNTIYLHMDMLKPEDTAVYYCASGKYRGQGTQVTVSS |
|  |  |  |  | 99.1 | 0.606 |  |  | CXCR20012 (other, Bivalent: two VHH joined by a GlySer linker; also called 137B7-35GS-137B7; not shown: C-terminal c-myc tag and His6 tag coded by pAX100) EVQLVESGGGLVQPGGSVRLSCVASGIIFRLSALGWTRQGPGKAREWVAGINSDGTTNYADPVKGRFTISRDNAKNTIYLHMDMLKPEDTAVYYCASGKYRGQGTQVTVSSGGGGSGGGGSGGGGSGGGGSGGGGSGGGGSGGGGSEVQLVESGGGLVQPGGSVRLSCVASGIIFRLSALGWTRQGPGKAREWVAGINSDGTTNYADPVKGRFTISRDNAKNTIYLHMDMLKPEDTAVYYCASGKYRGQGTQVTVSS |
|  |  |  |  | 50.6 | 0.044 | 81 | 1.8 | CXCR20019 (VHH, Bivalent: two VHH joined by a 9GS linker; also called 2B2-9GS-2B2; not shown: C-terminal c-myc tag and His6 tag coded by pAX100) EVQLVESGGELVQPGGSLRLSCAASGSILTINAMGWYRQAPGKQRELVVRRTRGGSTTYQDSVKGRFTISADIAKKTMYLQMNSLKPEDTAVYYCMLDDRGGVYWGQGTQVTVSSGGGGSGGGSEVQLVESGGELVQPGGSLRLSCAASGSILTINAMGWYRQAPGKQRELVVRRTRGGSTTYQDSVKGRFTISADIAKKTMYLQMNSLKPEDTAVYYCMLDDRGGVYWGQGTQVTVSS |
